Experimental findings from patent US20250361296A1 (BIOCYTOGEN PHARMACEUTICALS BEIJING, published 2025) are described below.

Sequences and labels used below:
T1: human SIGLEC11 on CHO-S-hSIGLEC11 cells (human, UniProt Q96RL6 104-561)
T1 sequence: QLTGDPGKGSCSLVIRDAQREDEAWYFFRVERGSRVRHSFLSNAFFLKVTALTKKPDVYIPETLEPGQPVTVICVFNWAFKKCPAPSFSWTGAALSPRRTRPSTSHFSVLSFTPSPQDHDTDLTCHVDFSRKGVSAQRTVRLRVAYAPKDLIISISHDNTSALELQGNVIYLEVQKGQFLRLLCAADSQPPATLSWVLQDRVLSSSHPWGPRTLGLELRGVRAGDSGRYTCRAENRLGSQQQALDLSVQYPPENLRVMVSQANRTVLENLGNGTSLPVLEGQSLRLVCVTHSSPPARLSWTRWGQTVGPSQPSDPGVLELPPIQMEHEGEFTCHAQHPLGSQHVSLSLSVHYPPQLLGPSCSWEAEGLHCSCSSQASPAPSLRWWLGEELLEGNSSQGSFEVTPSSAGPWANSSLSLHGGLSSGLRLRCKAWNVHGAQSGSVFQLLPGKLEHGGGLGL

T2: human SIGLEC14 on CHO-S-hSIGLEC14 cells (human, UniProt Q08ET2 17-358)
T2 sequence: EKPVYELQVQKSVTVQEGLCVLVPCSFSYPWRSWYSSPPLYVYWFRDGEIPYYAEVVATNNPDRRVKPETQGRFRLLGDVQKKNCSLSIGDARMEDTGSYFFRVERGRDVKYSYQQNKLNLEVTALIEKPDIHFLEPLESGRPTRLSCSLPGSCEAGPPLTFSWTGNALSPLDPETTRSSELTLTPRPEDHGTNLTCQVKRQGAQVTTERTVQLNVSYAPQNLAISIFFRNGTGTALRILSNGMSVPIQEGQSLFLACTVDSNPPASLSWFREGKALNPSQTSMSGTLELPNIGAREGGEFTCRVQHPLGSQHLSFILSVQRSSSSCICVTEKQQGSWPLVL

T3: hSIGLEC15 protein captured in the epitope analysis of Example 4 (human, UniProt Q6ZMC9 20-263, limits assumed)
T3 sequence: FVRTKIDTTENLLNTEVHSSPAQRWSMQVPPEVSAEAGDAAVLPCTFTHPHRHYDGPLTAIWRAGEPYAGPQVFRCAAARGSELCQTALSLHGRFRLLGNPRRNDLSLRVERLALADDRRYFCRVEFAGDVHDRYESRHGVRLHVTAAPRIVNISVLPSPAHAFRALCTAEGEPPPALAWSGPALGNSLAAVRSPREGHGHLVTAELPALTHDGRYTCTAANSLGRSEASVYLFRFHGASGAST

B1: anti-SIGLEC15 antibody 10A7 (antibody, human IgG1, V domains shown)
VH: EVQLVQSGGGLVQPGGSLRLSCAASGFTFSNYEMNWVRQAPGKGLEWISYISNSGSTIYYADSVKGRFTISRDDAKNSLYLQMNSLRAEDTAVYYCAREDYDSSGYYWFDPWGQGTPVTVSS
VL: DIQLTQSPSSVSASVGDRVTITCRASQGISSWLAWYQQKPGKAPKLLIYAASSLQSGVPSRFSGSGSGTDFTLTINSLQPEDFATYYCQQTNSFPLTFGGGTKVEIK
B2: anti-SIGLEC15 antibody 23F4 (antibody, human IgG1, V domains shown)
VH: QVQLQQWGAGLLKPSETLSLTCAVYGGSFSGYFWSWIRQPPGKGLEWIGEINHSGSTNYNPSLKSRVTLSVDTSKNQFSLKLSSVTAADTAVYYCAREGDSSSWGNWFDPWGQGTLVTVSS
VL: EIVLTQSPGTLSLSPGERATLSCRASQSVSSSYLAWYQQKPGQAPRFLIYGASSRATGIPDRFSGSGSGTDFTLTISRLEPEDFAVYYCQQFGNSPLTFGGGTKVEIK
B3: anti-SIGLEC15 antibody 10C9 (antibody, human IgG1, V domains shown)
VH: QVQLVQSGAEVKKPGATVKVSCKASGYTFTNYGFSWVRQAPGQGLEWMGWINTYNDNTNYAQKFQGRVTMTTDTSTSTAYMELRSLRSDDTAVYYCARDGLWFGELPHYFDYWGQGTLVTVSS
VL: DIQLTQSPLSSPVTLGQPASISCRSSQSLVNSDGETFLSWLQQRPGQPPRLLIYKISNRFSGVPDRFSGSGAGTDFTLKISRVEAEDVGVYYCMQATQFPHTFGQGTKLEIK

Chain of human SIGLEC6 on CHO-S-hSIGLEC6 cells (O43699 27-347): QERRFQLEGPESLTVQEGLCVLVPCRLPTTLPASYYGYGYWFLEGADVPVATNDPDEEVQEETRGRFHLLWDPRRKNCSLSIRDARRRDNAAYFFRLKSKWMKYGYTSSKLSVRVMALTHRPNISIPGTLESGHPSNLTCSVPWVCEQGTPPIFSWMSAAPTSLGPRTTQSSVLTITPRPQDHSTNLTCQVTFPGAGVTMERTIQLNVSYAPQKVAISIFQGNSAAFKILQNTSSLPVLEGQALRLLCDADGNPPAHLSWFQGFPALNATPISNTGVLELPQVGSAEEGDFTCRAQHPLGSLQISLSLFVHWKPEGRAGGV

The target in the first test is human SIGLEC6 on CHO-S-hSIGLEC6 cells (human, UniProt O43699 27-347). Description: flow cytometry, CHO-S cells expressing the target. Here is the method:
(§1) CHO-S-hSIGLEC15 cells, CHO-S-mSIGLEC15 cells, CHO-S-fasSIGLEC15 cells or CHO-S-dSIGLEC15 cells were transferred to a 96-well plate at a density of 5×10⁴ cells/well respectively. Serially diluted sample anti-SIGLEC15 antibodies were added to the 96-well plate, and incubated at 4° C. for 30 min. Then, the cells were incubated with the secondary antibody anti-hIgG-Fc-Alex Flour 647 (RL1-H) (Jackson ImmunoResearch Laboratories, Inc., 109-606-170) at 4° C. in the dark for 15 minutes before flow cytometry analysis.
(§2) Another similar experiment was performed to determine whether the anti-SIGLEC15 antibodies can bind with other SIGLEC family proteins. CHO-S-hSIGLEC1 cells (expressing hSIGLEC1, SEQ ID NO: 49)), CHO-S-hSIGLEC2 cells (expressing hSIGLEC2, SEQ ID NO: 50), CHO-S-hSIGLEC4 cells (expressing hSIGLEC4, SEQ ID NO: 51), CHO-S-hSIGLEC5 cells (expressing hSIGLEC5, SEQ ID NO: 52), CHO-S-hSIGLEC6 cells (expressing hSIGLEC6, SEQ ID NO: 53), CHO-S-hSIGLEC7 cells (expressing hSIGLEC7, SEQ ID NO: 54), CHO-S-hSIGLEC8 cells (expressing hSIGLEC8, SEQ ID NO: 55), CHO-S-hSIGLEC9 cells (expressing hSIGLEC9, SEQ ID NO: 56), CHO-S-hSIGLEC10 cells (expressing hSIGLEC10, SEQ ID NO: 57), CHO-S-hSIGLEC11 cells (expressing hSIGLEC11, SEQ ID NO: 58), CHO-S-hSIGLEC12 cells (expressing hSIGLEC12, SEQ ID NO: 59), CHO-S-hSIGLEC14 cells (expressing hSIGLEC14, SEQ ID NO: 60) or CHO-S-hSIGLEC16 cells (expressing hSIGLEC16, SEQ ID NO: 61) were used.
Turning to B1, the “Percentage of Positive Cells” value came out at 0.7% and the binding result was “no binding”.

For B2, the “Percentage of Positive Cells” value worked out at 1.5% and the binding result is recorded as “no binding”.

Consider B3, for which the “Percentage of Positive Cells” value was 0.5% and the binding result was “no binding”.

A further test has as its target T1, human SIGLEC11 on CHO-S-hSIGLEC11 cells. Kind of test: flow cytometry, CHO-S cells expressing the target. On the procedure:
as §1, §2
(In general: In flow cytometry, cells or beads pass a laser one at a time.)
As to B1, the “Percentage of Positive Cells” value was found to be 0.1% and the binding result is “no binding”.

As for B2, the “Percentage of Positive Cells” value was determined as 0.2% and the binding result is “no binding”.

Consider B3, for which the “Percentage of Positive Cells” value is 0.1% and the binding result was “no binding”.

The target of another test is T2, human SIGLEC14 on CHO-S-hSIGLEC14 cells. Kind of test: flow cytometry, CHO-S cells expressing the target. On the procedure:
as §1, §2
Consider B1, for which the “Percentage of Positive Cells” value was 0.1% and the binding result is “no binding”.

Consider B2, for which the “Percentage of Positive Cells” value worked out at 1.3% and the binding result is on record as “no binding”.

On to B3, for which the “Percentage of Positive Cells” value amounted to 0.2% and the binding result is listed as “no binding”.

A further test deals with T3, hSIGLEC15 protein captured in the …. Kind of test: BLI pairwise binning on captured hSIGLEC15, 200 nM each antibody; competitor 5G12. Here is the method: (§3) Relative positions of target protein epitope between a pair of purified anti-SIGLEC15 antibodies were analyzed by Biolayer Interferometry (BLI) using ForteBio Octet system at 30° C. A total of 4 purified antibodies were used: 5G12, 10A7, 10C9 and 23F4.
(§4) 1×HBS-EP+ buffer (10 mM 4-(2-hydroxyethyl)-1-piperazineethanesulfonic acid (HEPES), 150 mM NaCl, 3 mM ethylenediaminetetraacetic acid (EDTA) and 0.05% P20, pH7.4) diluted from HBS-EP+ buffer (10×) was used as the running buffer throughout the experiment. About 100 RU of hSIGLEC15 protein was captured at a flow rate of 10 μL/min, and 200 nM of antibody was injected at a flow rate of 30 μL/min to bind the ligand. Another antibody was injected under the same conditions to determine whether the binding of different antibodies interfered with each other. The binding time was 300 s for each antibody.
(§5) The binding value of each antibody was obtained using Data Analysis HT 12.0. To quantify the interference of one antibody binding to another, a binding ratio was calculated to compare each pair of antibodies. The binding ratio is defined as the binding value of the second antibody (analyte 2), divided by the binding value of the first antibody (analyte 1). […] In general, antibody pairs that interfere with each other have the same or overlapping epitopes.
Regarding B1, the binding ratio was found to be 0.2.

Take B2: the binding ratio turned out to be 0.48.

B3: the binding ratio is 0.23.

Another test has the same target. Description: BLI pairwise binning on captured hSIGLEC15, 200 nM each antibody; competitor 10C9. Here is the method: as §3, §4, §5
On to B1, for which the binding ratio was 0.16.

For the molecule B2, the binding ratio came to 0.62.

Consider B3, for which the binding ratio is 0.11.

The target is the same in another test. Description: BLI pairwise binning on captured hSIGLEC15, 200 nM each antibody; competitor 10A7. Here is the method: as §3, §4, §5
Take B1: the binding ratio worked out at 0.14.

For B2, the binding ratio worked out at 0.18.

Consider B3, for which the binding ratio was found to be 0.11.
